{
  "source": "patent US20180030151A1",
  "binders": {"B1": {"name": "mAb2021 (anti-TFPI Ab, Novo Nordisk) (antibody, from another filing, V domains shown)", "VH": "EVQLVESGGGLVKPGGSLRLSCAASGFTFSNYAMSWVRQTPEKRLEWVATISRSGSYSYFPDSVQGRFTISRDNAKNSLYLQMNSLRAEDTAVYYCARLGGYDEGDAMDSWGQGTTVTVSS", "VL": "DIVMTQTPLSLSVTPGQPASISCKSSQSLLESDGKTYLNWYLQKPGQSPQLLIYLVSILDSGVPDRFSGSGSGTDFTLKISRVEAEDVGVYYCLQATHFPQTFGGGTKVEIKR"}},
  "key": {"[1]": {"biological_target": "recombinant human TFPI (tissue factor pathway inhibitor) (human) (UniProt P10646)"}, "[2]": {"biological_target": "recombinant human TFPI (tissue factor pathway inhibitor) (human) (UniProt P10646)", "remark": "listed apart in the source"}, "[3]": {"biological_target": "recombinant human TFPI (tissue factor pathway inhibitor) (human) (UniProt P10646)", "remark": "listed apart in the source"}, "[4]": {"biological_target": "recombinant human TFPI (tissue factor pathway inhibitor) (human) (UniProt P10646)", "remark": "listed apart in the source"}, "[5]": {"biological_target": "recombinant human TFPI (tissue factor pathway inhibitor) (human) (UniProt P10646)", "remark": "listed apart in the source"}, "[6]": {"biological_target": "recombinant human TFPI (tissue factor pathway inhibitor) (human) (UniProt P10646)", "remark": "listed apart in the source"}, "[7]": {"biological_target": "recombinant human TFPI (tissue factor pathway inhibitor) (human) (UniProt P10646)", "remark": "listed apart in the source"}, "[8]": {"biological_target": "recombinant human TFPI (tissue factor pathway inhibitor) (human) (UniProt P10646)", "remark": "listed apart in the source"}, "[9]": {"biological_target": "recombinant human TFPI (tissue factor pathway inhibitor) (human) (UniProt P10646)", "remark": "listed apart in the source"}},
  "note": "Where two headings read alike, the source gives them in different places.",
  "data": [
    {"binder": "B1", "values": [
      {"measurement": "FXa assay % of FXa alone, 2.5 nM Ab, 10 nM TFPI", "setting": "[1]", "result": 9, "unit": "%"},
      {"measurement": "FXa assay % of FXa alone, 5 nM Ab, 10 nM TFPI", "setting": "[1]", "result": 61.3, "unit": "%"},
      {"measurement": "FXa assay % of FXa alone, 10 nM Ab, 10 nM TFPI", "setting": "[1]", "result": 97.4, "unit": "%"},
      {"measurement": "FXa assay % of FXa alone, 20 nM Ab, 10 nM TFPI", "setting": "[1]", "result": 93.6, "unit": "%"},
      {"measurement": "FXa assay OD, 2.5 nM Ab, 10 nM TFPI", "setting": "[1]", "result": 0.065},
      {"measurement": "FXa assay OD, 5 nM Ab, 10 nM TFPI", "setting": "[1]", "result": 0.441},
      {"measurement": "FXa assay OD, 10 nM Ab, 10 nM TFPI", "setting": "[1]", "result": 0.701},
      {"measurement": "FXa assay OD, 20 nM Ab, 10 nM TFPI", "setting": "[1]", "result": 0.673},
      {"measurement": "FXa assay % of FXa alone, 2.5 nM Ab, 10 nM TFPI", "setting": "[2]", "result": 12.3, "unit": "%"},
      {"measurement": "FXa assay % of FXa alone, 5 nM Ab, 10 nM TFPI", "setting": "[2]", "result": 90, "unit": "%"},
      {"measurement": "FXa assay % of FXa alone, 10 nM Ab, 10 nM TFPI", "setting": "[2]", "result": 96.5, "unit": "%"},
      {"measurement": "FXa assay % of FXa alone, 20 nM Ab, 10 nM TFPI", "setting": "[2]", "result": 88.8, "unit": "%"},
      {"measurement": "FXa assay OD, 2.5 nM Ab, 10 nM TFPI", "setting": "[2]", "result": 0.0945},
      {"measurement": "FXa assay OD, 5 nM Ab, 10 nM TFPI", "setting": "[2]", "result": 0.693},
      {"measurement": "FXa assay OD, 10 nM Ab, 10 nM TFPI", "setting": "[2]", "result": 0.743},
      {"measurement": "FXa assay OD, 20 nM Ab, 10 nM TFPI", "setting": "[2]", "result": 0.683},
      {"measurement": "FXa assay % of FXa alone, 2.5 nM Ab, 10 nM TFPI", "setting": "[3]", "result": 6.6, "unit": "%"},
      {"measurement": "FXa assay % of FXa alone, 5 nM Ab, 10 nM TFPI", "setting": "[3]", "result": 35, "unit": "%"},
      {"measurement": "FXa assay % of FXa alone, 10 nM Ab, 10 nM TFPI", "setting": "[3]", "result": 98.5, "unit": "%"},
      {"measurement": "FXa assay % of FXa alone, 20 nM Ab, 10 nM TFPI", "setting": "[3]", "result": 85.8, "unit": "%"},
      {"measurement": "FXa assay OD, 2.5 nM Ab, 10 nM TFPI", "setting": "[3]", "result": 0.032},
      {"measurement": "FXa assay OD, 5 nM Ab, 10 nM TFPI", "setting": "[3]", "result": 0.17},
      {"measurement": "FXa assay OD, 10 nM Ab, 10 nM TFPI", "setting": "[3]", "result": 0.476},
      {"measurement": "FXa assay OD, 20 nM Ab, 10 nM TFPI", "setting": "[3]", "result": 0.415},
      {"measurement": "FXa assay % of FXa alone, 2.5 nM Ab, 10 nM TFPI", "setting": "[4]", "result": 9.2, "unit": "%"},
      {"measurement": "FXa assay % of FXa alone, 5 nM Ab, 10 nM TFPI", "setting": "[4]", "result": 87, "unit": "%"},
      {"measurement": "FXa assay % of FXa alone, 10 nM Ab, 10 nM TFPI", "setting": "[4]", "result": 95.7, "unit": "%"},
      {"measurement": "FXa assay % of FXa alone, 20 nM Ab, 10 nM TFPI", "setting": "[4]", "result": 98.3, "unit": "%"},
      {"measurement": "FXa assay OD, 2.5 nM Ab, 10 nM TFPI", "setting": "[4]", "result": 0.0745},
      {"measurement": "FXa assay OD, 5 nM Ab, 10 nM TFPI", "setting": "[4]", "result": 0.702},
      {"measurement": "FXa assay OD, 10 nM Ab, 10 nM TFPI", "setting": "[4]", "result": 0.772},
      {"measurement": "FXa assay OD, 20 nM Ab, 10 nM TFPI", "setting": "[4]", "result": 0.793},
      {"measurement": "FXa assay % of FXa alone, 2.5 nM Ab, 10 nM TFPI", "setting": "[5]", "result": 8.7, "unit": "%"},
      {"measurement": "FXa assay % of FXa alone, 5 nM Ab, 10 nM TFPI", "setting": "[5]", "result": 33.6, "unit": "%"},
      {"measurement": "FXa assay % of FXa alone, 10 nM Ab, 10 nM TFPI", "setting": "[5]", "result": 92.4, "unit": "%"},
      {"measurement": "FXa assay % of FXa alone, 20 nM Ab, 10 nM TFPI", "setting": "[5]", "result": 91.4, "unit": "%"},
      {"measurement": "FXa assay OD, 2.5 nM Ab, 10 nM TFPI", "setting": "[5]", "result": 0.071},
      {"measurement": "FXa assay OD, 5 nM Ab, 10 nM TFPI", "setting": "[5]", "result": 0.273},
      {"measurement": "FXa assay OD, 10 nM Ab, 10 nM TFPI", "setting": "[5]", "result": 0.75},
      {"measurement": "FXa assay OD, 20 nM Ab, 10 nM TFPI", "setting": "[5]", "result": 0.742},
      {"measurement": "FXa assay % of FXa alone, 2.5 nM Ab, 10 nM TFPI", "setting": "[6]", "result": 6.2, "unit": "%"},
      {"measurement": "FXa assay % of FXa alone, 5 nM Ab, 10 nM TFPI", "setting": "[6]", "result": 16.4, "unit": "%"},
      {"measurement": "FXa assay % of FXa alone, 10 nM Ab, 10 nM TFPI", "setting": "[6]", "result": 87.5, "unit": "%"},
      {"measurement": "FXa assay % of FXa alone, 20 nM Ab, 10 nM TFPI", "setting": "[6]", "result": 84.6, "unit": "%"},
      {"measurement": "FXa assay OD, 2.5 nM Ab, 10 nM TFPI", "setting": "[6]", "result": 0.0475},
      {"measurement": "FXa assay OD, 5 nM Ab, 10 nM TFPI", "setting": "[6]", "result": 0.125},
      {"measurement": "FXa assay OD, 20 nM Ab, 10 nM TFPI", "setting": "[6]", "result": 0.644},
      {"measurement": "FXa assay % of FXa alone, 2.5 nM Ab, 10 nM TFPI", "setting": "[7]", "result": 5.6, "unit": "%"},
      {"measurement": "FXa assay % of FXa alone, 5 nM Ab, 10 nM TFPI", "setting": "[7]", "result": 10.7, "unit": "%"},
      {"measurement": "FXa assay % of FXa alone, 10 nM Ab, 10 nM TFPI", "setting": "[7]", "result": 77.7, "unit": "%"},
      {"measurement": "FXa assay % of FXa alone, 20 nM Ab, 10 nM TFPI", "setting": "[7]", "result": 84.5, "unit": "%"},
      {"measurement": "FXa assay OD, 2.5 nM Ab, 10 nM TFPI", "setting": "[7]", "result": 0.0485},
      {"measurement": "FXa assay OD, 5 nM Ab, 10 nM TFPI", "setting": "[7]", "result": 0.0935},
      {"measurement": "FXa assay OD, 10 nM Ab, 10 nM TFPI", "setting": "[7]", "result": 0.676},
      {"measurement": "FXa assay OD, 20 nM Ab, 10 nM TFPI", "setting": "[7]", "result": 0.735},
      {"measurement": "FXa assay % of FXa alone, 2.5 nM Ab, 10 nM TFPI", "setting": "[8]", "result": 8.4, "unit": "%"},
      {"measurement": "FXa assay % of FXa alone, 5 nM Ab, 10 nM TFPI", "setting": "[8]", "result": 21, "unit": "%"},
      {"measurement": "FXa assay % of FXa alone, 10 nM Ab, 10 nM TFPI", "setting": "[8]", "result": 90.7, "unit": "%"},
      {"measurement": "FXa assay % of FXa alone, 20 nM Ab, 10 nM TFPI", "setting": "[8]", "result": 95.2, "unit": "%"},
      {"measurement": "FXa assay OD, 2.5 nM Ab, 10 nM TFPI", "setting": "[8]", "result": 0.101},
      {"measurement": "FXa assay OD, 5 nM Ab, 10 nM TFPI", "setting": "[8]", "result": 0.249},
      {"measurement": "FXa assay OD, 10 nM Ab, 10 nM TFPI", "setting": "[8]", "result": 1.08},
      {"measurement": "FXa assay OD, 20 nM Ab, 10 nM TFPI", "setting": "[8]", "result": 1.13},
      {"measurement": "FXa assay % of FXa alone, 2.5 nM Ab, 10 nM TFPI", "setting": "[9]", "result": 8.5, "unit": "%"},
      {"measurement": "FXa assay % of FXa alone, 5 nM Ab, 10 nM TFPI", "setting": "[9]", "result": 66.6, "unit": "%"},
      {"measurement": "FXa assay % of FXa alone, 10 nM Ab, 10 nM TFPI", "setting": "[9]", "result": 92.3, "unit": "%"},
      {"measurement": "FXa assay % of FXa alone, 20 nM Ab, 10 nM TFPI", "setting": "[9]", "result": 87.6, "unit": "%"},
      {"measurement": "FXa assay OD, 2.5 nM Ab, 10 nM TFPI", "setting": "[9]", "result": 0.07},
      {"measurement": "FXa assay OD, 5 nM Ab, 10 nM TFPI", "setting": "[9]", "result": 0.55},
      {"measurement": "FXa assay OD, 10 nM Ab, 10 nM TFPI", "setting": "[9]", "result": 0.763}
    ]}
  ]
}
